Blank lines part the entries; values can stand above or below the molecule they belong to.
Molecular target: T1, tyrosine phosphorylated β-catenin (Homo sapiens, UniProt P35222)
T1 construct: expressed in transfected cells; host or cells: human 293 embryonic kidney cells, transient; CMV-promoter vector; immunoprecipitated with anti-β-catenin antibody
T1 sequence (P35222 1-781): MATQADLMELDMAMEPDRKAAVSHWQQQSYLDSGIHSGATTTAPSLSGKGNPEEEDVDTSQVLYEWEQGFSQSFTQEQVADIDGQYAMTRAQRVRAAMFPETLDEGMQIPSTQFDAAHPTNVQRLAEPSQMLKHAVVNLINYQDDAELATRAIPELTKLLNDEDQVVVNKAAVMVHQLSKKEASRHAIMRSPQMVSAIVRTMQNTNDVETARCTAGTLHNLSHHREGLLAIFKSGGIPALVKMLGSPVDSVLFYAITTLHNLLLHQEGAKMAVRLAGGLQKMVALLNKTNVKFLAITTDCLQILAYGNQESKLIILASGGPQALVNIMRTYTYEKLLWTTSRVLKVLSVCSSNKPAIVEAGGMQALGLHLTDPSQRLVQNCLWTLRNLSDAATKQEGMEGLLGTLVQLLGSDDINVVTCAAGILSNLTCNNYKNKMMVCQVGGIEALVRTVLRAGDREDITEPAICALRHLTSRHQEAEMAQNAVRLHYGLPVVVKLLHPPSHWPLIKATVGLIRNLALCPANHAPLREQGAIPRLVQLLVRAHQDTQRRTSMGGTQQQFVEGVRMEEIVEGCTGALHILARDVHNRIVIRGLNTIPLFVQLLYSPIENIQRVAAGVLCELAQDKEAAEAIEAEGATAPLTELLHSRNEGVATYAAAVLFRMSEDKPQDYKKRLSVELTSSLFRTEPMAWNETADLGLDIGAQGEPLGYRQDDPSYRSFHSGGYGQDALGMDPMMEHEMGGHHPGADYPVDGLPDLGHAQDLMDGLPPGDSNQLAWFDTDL
Assay: In vitro dephosphorylation assay
Type: biochemical
Conditions: 200 ng GST fusion protein, 25° C.; within the first five minutes; anti-phosphotyrosine Western blot
Procedure: After 24 h of serum starvation, the cells were stimulated with pervanadate before lysis. β-catenin was subsequently immunoprecipitated with an anti-β-catenin antibody, and precipitates were incubated for the indicated time intervals with GST-PTP LAR cytoplasmic fusion protein (left), GST-PTP LAR PTP D1 C1522S-mutant (middle) or GST-PTP LAR PTP D2 C1813S-mutant (right). Reactions were terminated after the indicated periods of time, and proteins were separated by SDS-PAGE. Tyrosine phosphorylation levels of […] were analyzed by Western blotting with an anti-phosphotyrosine antibody (top). […] Arrows indicate the proteins of interest.
In Vitro Dephosphorylation Assay—β-catenin was transiently overexpressed in human 293 embryonic kidney cells. Cells were serum-starved, treated with pervanadate ([…]/0.1 mM Na-orthovanadate) for 10 minutes and lysed. Immunoprecipitations were performed as described above except that HNTG without pyrophosphate, ammonium-molybdate, and Na-orthovanadate was used. PTP activity towards tyrosine phosphorylated β-catenin was assayed in 200 μL reactions at 25° C. containing 25 mM HEPES, pH 7.5, 5 mM EDTA, 10 mM DTT, and 1 mg/mL BSA with 200 ng of GST-hPTP LAR cytoplasmic, GST-hPTP LAR D1 C1522S, or GST-hPTP LAR D2 C1813S added. Reactions were stopped by washing with HNTG and subsequently separated by SDS-PAGE. The tyrosine phosphorylation status was analyzed by Western blotting using anti-phosphotyrosine antibody.
The association of β-catenin and plakoglobin with PTP LAR prompted the investigation of whether these proteins could represent actual substrates for PTP LAR. […] After different time intervals, the reactions were terminated and analyzed with an anti-phosphotyrosine specific antibody.

B1: GST-PTP LAR PTP D2 C1813S: GST fusion of PTP LAR cytoplasmic domain with inactivated PTP domain 2 (protein)
chain: KRKRTHSPSSKDEQSIGLKDSLLAHSSDPVEMRRLNYQTPGMRDHPPIPITDLADNIERLKANDGLKFSQEYESIDPGQQFTWENSNLEVNKPKNRYANVIAYDHSRVILTSIDGVPGSDYINANYIDGYRKQNAYIATQGPLPETMGDFWRMVWEQRTATVVMMTRLEEKSRVKCDQYWPARGTETCGLIQVTLLDTVELATYTVRTFALHKSGSSEKRELRQFQFMAWPDHGVPEYPTPILAFLRRVKACNPLDAGPMVVHCSAGVGRTGCFIVIDAMLERMKHEKTVDIYGHVTCMRSQRNYMVQTEDQYVFIHEALLEAATCGHTEVPARNLYAHIQKLGQVPPGESVTAMELEFKLLASSKAHTSRFISANLPCNKFKNRLVNIMPYELTRVCLQPIRGVEGSDYINASFLDGYRQQKAYIATQGPLAESTEDFWRMLWEHNSTIIVMLTKLREMGREKCHQYWPAERSARYQYFVVDPMAEYNMPQYILREFKVTDARDGQSRTIRQFQFTDWPEQGVPKTGEGFIDFIGQVHKTKEQFGQDGPITVHCSAGVGRTGVFITLSIVLERMRYEGVVDMFQTVKTLRTQRPAMVQTEDQYQLCYRAALEYLGSFDHYAT
- tyrosine phosphorylation signal of β-catenin: significant reduction in the tyrosine phosphorylation signal

- tyrosine phosphorylation signal of β-catenin: No change in phosphorylation levels
B2: GST-PTP LAR PTP D1 C1522S: GST fusion of PTP LAR cytoplasmic domain with catalytically inactivated PTP domain 1 (protein)
chain: B1 chain

Source: US20090074722A1, “Products and methods for treating PTP lar diseases” (MAX-PLANCK-GESELLSCHAFT ZUR, priority 1999, published 2009)
